Reference: patent publication EP4321174A1 (Genome and Company, dated 2024)

How the values were obtained:
Experiment in all cases: ELISA, coated CNTN4 domain sample, anti-human IgG Fc-HRP
[1] = target: T1, Human CNTN4 domain sample Full (Domains 1 to 10) (human, UniProt Q8IWV2 19-1000, limits assumed)
T1 construct: domain: Domains 1 to 10 (Ig1 to FN4); Coated on the ELISA plate at 4 ug/mL
T1 sequence (looked up): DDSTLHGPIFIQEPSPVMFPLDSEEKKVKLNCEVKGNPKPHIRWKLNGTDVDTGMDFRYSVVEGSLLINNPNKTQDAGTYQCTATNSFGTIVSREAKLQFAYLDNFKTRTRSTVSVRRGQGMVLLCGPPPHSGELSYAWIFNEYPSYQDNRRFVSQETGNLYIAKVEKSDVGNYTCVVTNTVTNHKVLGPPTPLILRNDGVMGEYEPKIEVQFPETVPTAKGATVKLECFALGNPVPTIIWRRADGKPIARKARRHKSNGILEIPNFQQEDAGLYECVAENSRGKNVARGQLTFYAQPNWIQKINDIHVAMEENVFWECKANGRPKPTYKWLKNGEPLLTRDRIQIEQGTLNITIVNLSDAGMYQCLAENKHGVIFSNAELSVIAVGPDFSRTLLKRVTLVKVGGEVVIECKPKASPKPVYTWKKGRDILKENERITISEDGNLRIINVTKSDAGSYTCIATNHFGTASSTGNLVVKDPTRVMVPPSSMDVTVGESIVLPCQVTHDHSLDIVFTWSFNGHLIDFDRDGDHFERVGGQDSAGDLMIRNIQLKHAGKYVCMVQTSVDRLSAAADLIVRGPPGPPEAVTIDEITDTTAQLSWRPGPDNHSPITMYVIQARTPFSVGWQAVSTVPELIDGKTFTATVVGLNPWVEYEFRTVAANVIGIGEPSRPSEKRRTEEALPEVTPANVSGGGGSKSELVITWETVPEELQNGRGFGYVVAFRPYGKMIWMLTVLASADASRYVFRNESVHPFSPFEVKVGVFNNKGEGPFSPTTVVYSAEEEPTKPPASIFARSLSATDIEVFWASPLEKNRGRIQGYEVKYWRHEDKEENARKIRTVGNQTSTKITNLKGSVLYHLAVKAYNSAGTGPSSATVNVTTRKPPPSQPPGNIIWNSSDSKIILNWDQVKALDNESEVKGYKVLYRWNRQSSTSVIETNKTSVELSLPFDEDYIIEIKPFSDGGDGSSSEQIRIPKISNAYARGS

[2] = target: T2, Human CNTN4 domain sample D1-9 (human, UniProt Q8IWV2 19-899, limits assumed)
T2 construct: domain: Domains 1 to 9; Coated at 3.6 ug/mL
T2 sequence (looked up): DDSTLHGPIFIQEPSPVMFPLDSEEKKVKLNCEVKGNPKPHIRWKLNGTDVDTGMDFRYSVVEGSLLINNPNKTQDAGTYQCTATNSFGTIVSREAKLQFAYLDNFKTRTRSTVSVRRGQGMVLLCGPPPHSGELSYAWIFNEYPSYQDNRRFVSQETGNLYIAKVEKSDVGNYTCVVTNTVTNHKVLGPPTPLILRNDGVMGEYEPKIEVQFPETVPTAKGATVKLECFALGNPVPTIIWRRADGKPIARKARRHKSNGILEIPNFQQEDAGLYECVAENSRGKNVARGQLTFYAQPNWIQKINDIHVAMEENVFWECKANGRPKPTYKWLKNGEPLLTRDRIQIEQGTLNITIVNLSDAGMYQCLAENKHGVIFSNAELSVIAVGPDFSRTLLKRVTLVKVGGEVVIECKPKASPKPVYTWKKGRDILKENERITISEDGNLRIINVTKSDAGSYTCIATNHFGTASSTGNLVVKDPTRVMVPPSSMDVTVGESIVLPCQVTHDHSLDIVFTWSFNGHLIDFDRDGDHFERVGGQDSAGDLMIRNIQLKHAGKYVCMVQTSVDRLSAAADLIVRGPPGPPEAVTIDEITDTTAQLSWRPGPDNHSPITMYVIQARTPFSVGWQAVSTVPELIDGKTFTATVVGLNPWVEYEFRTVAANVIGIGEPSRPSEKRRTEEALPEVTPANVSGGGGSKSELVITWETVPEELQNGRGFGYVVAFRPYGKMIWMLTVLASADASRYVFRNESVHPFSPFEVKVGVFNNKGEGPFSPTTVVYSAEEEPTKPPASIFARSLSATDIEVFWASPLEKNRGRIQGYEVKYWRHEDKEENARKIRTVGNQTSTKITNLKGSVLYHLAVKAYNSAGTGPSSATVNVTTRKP

[3] = target: T3, Human CNTN4 domain sample D1-5 (human, UniProt Q8IWV2 19-493, limits assumed)
T3 construct: domain: Domains 1 to 5; Coated at 2.0 ug/mL
T3 sequence (looked up): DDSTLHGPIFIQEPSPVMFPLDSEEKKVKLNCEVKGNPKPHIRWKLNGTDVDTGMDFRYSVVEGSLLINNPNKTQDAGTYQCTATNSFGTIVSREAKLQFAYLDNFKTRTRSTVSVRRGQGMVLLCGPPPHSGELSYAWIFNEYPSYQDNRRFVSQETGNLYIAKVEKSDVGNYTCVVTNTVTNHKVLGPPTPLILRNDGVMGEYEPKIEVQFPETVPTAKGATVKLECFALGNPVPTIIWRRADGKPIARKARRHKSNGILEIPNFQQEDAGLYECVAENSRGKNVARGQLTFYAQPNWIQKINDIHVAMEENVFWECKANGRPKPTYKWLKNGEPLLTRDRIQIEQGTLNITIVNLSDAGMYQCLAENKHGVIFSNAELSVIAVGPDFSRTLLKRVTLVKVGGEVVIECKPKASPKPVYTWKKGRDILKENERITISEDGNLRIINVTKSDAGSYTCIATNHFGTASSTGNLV

[4] = target: T4, Human CNTN4 domain sample D1-6 (human, UniProt Q8IWV2 19-586, limits assumed)
T4 construct: domain: Domains 1 to 6; Coated at 2.3 ug/mL
T4 sequence (looked up): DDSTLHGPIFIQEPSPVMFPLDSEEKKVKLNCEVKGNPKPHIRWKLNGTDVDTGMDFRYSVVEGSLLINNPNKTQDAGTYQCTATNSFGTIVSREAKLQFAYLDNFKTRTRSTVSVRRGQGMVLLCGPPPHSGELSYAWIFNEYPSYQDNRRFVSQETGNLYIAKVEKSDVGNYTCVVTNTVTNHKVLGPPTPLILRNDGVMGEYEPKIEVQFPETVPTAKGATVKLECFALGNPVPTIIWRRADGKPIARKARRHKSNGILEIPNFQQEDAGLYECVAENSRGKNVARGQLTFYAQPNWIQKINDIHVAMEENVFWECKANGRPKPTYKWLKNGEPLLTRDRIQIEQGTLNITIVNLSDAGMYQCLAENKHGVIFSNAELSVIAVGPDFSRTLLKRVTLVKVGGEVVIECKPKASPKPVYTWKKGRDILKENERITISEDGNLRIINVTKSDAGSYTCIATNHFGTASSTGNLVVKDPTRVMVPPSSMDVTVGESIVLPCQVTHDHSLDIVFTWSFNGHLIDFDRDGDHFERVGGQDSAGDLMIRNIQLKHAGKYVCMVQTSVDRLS

[5] = target: T5, Human CNTN4 domain sample D1-4 (human, UniProt Q8IWV2 19-400, limits assumed)
T5 construct: domain: Domains 1 to 4; Coated at 1.6 ug/mL
T5 sequence (looked up): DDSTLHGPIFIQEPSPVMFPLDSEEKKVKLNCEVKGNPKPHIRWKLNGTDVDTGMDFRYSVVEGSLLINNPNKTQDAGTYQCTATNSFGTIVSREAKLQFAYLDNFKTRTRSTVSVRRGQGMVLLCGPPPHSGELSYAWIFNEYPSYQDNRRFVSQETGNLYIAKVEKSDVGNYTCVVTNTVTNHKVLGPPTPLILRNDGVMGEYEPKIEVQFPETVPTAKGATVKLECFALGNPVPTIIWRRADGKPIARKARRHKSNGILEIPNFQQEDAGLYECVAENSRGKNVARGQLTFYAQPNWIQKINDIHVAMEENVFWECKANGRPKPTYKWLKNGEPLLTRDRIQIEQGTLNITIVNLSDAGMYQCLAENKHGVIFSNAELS

[6] = target: T6, Human CNTN4 domain sample D1-8 (human, UniProt Q8IWV2 19-799, limits assumed)
T6 construct: domain: Domains 1 to 8; Coated at 3.2 ug/mL
T6 sequence (looked up): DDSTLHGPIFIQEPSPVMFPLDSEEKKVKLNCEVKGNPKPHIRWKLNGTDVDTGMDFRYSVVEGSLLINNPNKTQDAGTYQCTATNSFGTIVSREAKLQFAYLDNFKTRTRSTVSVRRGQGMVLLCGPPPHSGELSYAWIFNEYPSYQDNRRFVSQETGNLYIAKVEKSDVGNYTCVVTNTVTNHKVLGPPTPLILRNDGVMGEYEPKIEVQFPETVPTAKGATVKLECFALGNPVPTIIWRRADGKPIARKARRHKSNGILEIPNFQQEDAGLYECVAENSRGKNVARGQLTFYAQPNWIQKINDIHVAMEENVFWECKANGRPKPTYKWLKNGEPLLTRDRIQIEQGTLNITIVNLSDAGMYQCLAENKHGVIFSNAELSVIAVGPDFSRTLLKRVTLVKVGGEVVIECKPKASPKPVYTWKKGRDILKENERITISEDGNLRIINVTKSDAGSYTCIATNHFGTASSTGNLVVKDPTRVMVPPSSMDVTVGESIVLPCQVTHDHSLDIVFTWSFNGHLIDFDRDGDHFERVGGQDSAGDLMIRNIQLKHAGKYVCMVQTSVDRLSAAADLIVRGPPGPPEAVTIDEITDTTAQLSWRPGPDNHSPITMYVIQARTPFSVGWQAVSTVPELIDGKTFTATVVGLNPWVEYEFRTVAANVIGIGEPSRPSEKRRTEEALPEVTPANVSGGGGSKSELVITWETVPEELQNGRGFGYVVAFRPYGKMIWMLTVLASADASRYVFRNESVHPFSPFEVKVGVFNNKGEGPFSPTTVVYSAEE

[7] = target: T7, Human CNTN4 domain sample D1-7 (human, UniProt Q8IWV2 19-697, limits assumed)
T7 construct: domain: Domains 1 to 7; Coated at 2.8 ug/mL
T7 sequence (looked up): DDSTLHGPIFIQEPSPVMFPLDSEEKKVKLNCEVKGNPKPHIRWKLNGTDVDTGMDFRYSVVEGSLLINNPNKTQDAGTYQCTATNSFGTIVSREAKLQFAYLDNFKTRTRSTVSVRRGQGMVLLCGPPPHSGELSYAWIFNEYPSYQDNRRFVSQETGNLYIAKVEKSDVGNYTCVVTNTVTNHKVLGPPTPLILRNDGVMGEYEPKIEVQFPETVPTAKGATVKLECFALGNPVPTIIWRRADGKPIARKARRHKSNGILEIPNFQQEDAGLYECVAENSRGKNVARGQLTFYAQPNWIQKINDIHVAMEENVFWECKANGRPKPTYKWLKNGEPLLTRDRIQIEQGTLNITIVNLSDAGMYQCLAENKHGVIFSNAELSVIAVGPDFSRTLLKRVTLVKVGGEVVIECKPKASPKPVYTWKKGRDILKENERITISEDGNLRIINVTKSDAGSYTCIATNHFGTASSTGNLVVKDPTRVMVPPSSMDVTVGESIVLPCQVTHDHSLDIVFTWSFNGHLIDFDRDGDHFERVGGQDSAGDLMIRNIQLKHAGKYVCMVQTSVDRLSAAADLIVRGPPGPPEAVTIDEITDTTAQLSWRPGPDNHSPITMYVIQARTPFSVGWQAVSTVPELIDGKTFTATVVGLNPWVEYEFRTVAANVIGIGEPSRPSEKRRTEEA

B1: anti-CNTN4 chicken-human chimeric IgG4 antibody AB1 (antibody, V domains shown)
VH: AVTLDESEGGLQTPGGALSLVCKASGFTFSSFNMFWVRQAPGKGLEYVAEISGGGGSTWYAPAVKGRATISRDNGQSTVRLQLNNLRAEDTGTYYCAKSADTWSYGAATIDAWGHGTEVIVSS
VL: ALTQPSSVSANLGETVKITCSGSSGSYGWYQQKSPGSAPVTLIYDNTNRPSDIPSRFSGSGSGSTGTLTITGVRAEDEAVYYCGGYDGSTDVFGAGTTLTVL
notes: They were cloned into a chicken-human chimeric IgG4 and purified on Kappa select resin, so the light chain has a kappa constant region; also called anti-CNTN4 antibody AB1; anti-CNTN4 129 chimeric IgG4 antibody
Q: Does B1 bind [1]?
A: binds

Q: Does B1 bind [2]?
A: binds

Q: Does B1 bind [3]?
A: no binding

Q: Does B1 bind [4]?
A: no binding

Q: Does B1 bind [5]?
A: no binding

Q: Does B1 bind [6]?
A: binds

Q: Does B1 bind [7]?
A: no binding
